Source: patent publication US20240301038A1

Molecular target: SARS-CoV-2 Spike Receptor Binding Domain (RBD) (Sino Biological) (SARS-CoV-2), P0DTC2
Settings: remark: other sources report otherwise

B1: AB-009620 (antibody, V domains shown)
VH: QITLKESGPTLVKPTQTLTLTCTFSGFSLSTSGVGVGWIRQPPGKALEWLALIYWDDDKRYSPSLKSRLTITKDTSKNQVVLTMTNMDPVDTATYYCAHHEVATVFDYWGQGTLVTVSS
VL: QSALTQPASVSGSPGQSITISCTGTSSDVGAYNYVSWYQQHPGKAPKLMIYEVSNRPSGVSNRFSGSKSGNTASLTISGLQAEDEADYYCSSYTSSSTVFGGGTKLTVL
Kd: 5.99 nM
